Experiment [1] addresses SARS-CoV-2 WT NTD with the native signal peptide (SARS-CoV-2, Wuhan-Hu-1 (wild type), UniProt P0DTC2). The experiment in a line: ELISA. The note with it: both partners purified. A general note: In an ELISA, binding on a coated surface is turned into a signal by an enzyme label.
The target of experiment [2] is SARS-CoV-2 S N-terminal domain (NTD), wild type, with the native signal peptide (SARS-CoV-2, Wuhan-Hu-1 (wild type), UniProt P0DTC2). The experiment can be described thus: ELISA. As to conditions: both partners purified.

B1: S2L20 mAb (antibody, V domains shown)
VH: EVQLVESGGGVVQPGGSLRLSCAASGFTFNSYGMHWVRQAPGKGLEWVAFIRYDGGNKYYADSVKGRFTISRDNSKNTLYLQMKSLRAEDTAVYYCANLKDSRYSGSYYDYWGQGTLVTVS
VL: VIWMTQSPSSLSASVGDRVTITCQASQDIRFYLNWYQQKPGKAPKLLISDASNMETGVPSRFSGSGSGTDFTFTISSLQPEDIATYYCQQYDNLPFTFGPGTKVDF
With B1, the binding result in experiment [1] is reported as “binds”.

B2: S2X333 mAb (NTD-specific, neutralizing, antigenic site i) (antibody, V domains shown)
VH: VQLVESGGGVVQPGRSLRLSCAASGFTFSNYGMHWVRQAPGKGLEWVAVIWYDGSNKFYADSVKGRFTISRDNSKNSLYLQMNSLRAEDTAVYFCARAFPDSSSWSGFTIDYWGQGTLVTV
VL: YELTQPPSVSTARITCGGNNIERKSVHWCQQKPGQAPALVVYDDSDRPSGIPERFSGSNSGNTATLTISRVEAGDEADYYCQVWDSGSDQVIFGGGTKLT
In the case of B2, the binding result in experiment [2] is “binds”.

(Values after publication PMC9835956 (Science (New York, N.y.), 2021).)
